From patent publication EP1788086A1 (HUMAN GENOME SCIENCES, INC., dated 2007) come the findings set out here.

Assay [1] has as its target T1, DR5 (expression construct in 293 cells, precipitated with Flag M2 antibody gel) (human, UniProt O14763 52-440).
T1 construct: also called Death Domain Containing Receptor 5; HLYBX88; not shown: Flag tag implied by immunoprecipitation with Flag M2 gel
The assay can be described thus: co-immunoprecipitation from co-transfected 293 cell lysates with Flag M2 antibody gel; immunoblot with HRP-conjugated antibody to myc.

Assay [2] concerns the target T1, DR5 (expression construct in 293 cells, …). The assay can be described thus: co-immunoprecipitation from co-transfected 293 cell lysates with Flag M2 antibody gel; immunoblot with polyclonal antibody to FADD.

B1: myc-tagged TRADD (other, UniProt Q15628 1-312, looked up)
chain: MAAGQNGHEEWVGSAYLFVESSLDKVVLSDAYAHPQQKVAVYRALQAALAESGGSPDVLQMLKIHRSDPQLIVQLRFCGRQPCGRFLRAYREGALRAALQRSLAAALAQHSVPLQLELRAGAERLDALLADEERCLSCILAQQPDRLRDEELAELEDALRNLKCGSGARGGDGEVASAPLQPPVPSLSEVKPPPPPPPAQTFLFQGQPVVNRPLSLKDQQTFARSVGLKWRKVGRSLQRGCRALRDPALDSLAYEYEREGLYEQAFQLLRRFVQAEGRRATLQRLVEALEENELTSLAEDLLGLTDPNGGLA
notes: Detected with HRP-conjugated antibody to myc; also called myc-TRADD; not shown: myc tag
As to B1, the binding result in assay [1] is on record as “no binding”.

B2: FADD (other, UniProt Q13158 1-208, looked up)
chain: MDPFLVLLHSVSSSLSSSELTELKFLCLGRVGKRKLERVQSGLDLFSMLLEQNDLEPGHTELLRELLASLRRHDLLRRVDDFEAGAAAGAAPGEEDLCAAFNVICDNVGKDWRRLARQLKVSDTKIDSIEDRYPRNLTERVRESLRIWKNTEKENATVAHLVGALRSCQMNLVADLVQEVQQARDLQNRSGAMSPMSWNSDASTSEAS
notes: Detected with a polyclonal antibody to FADD; also called FADD/MORT1
As to B2, the binding result in assay [2] is “no binding”.
